Data set [1] concerns the target T1, Cathepsin G (CatG) (Homo sapiens, UniProt P08311 21-244).
T1 sequence: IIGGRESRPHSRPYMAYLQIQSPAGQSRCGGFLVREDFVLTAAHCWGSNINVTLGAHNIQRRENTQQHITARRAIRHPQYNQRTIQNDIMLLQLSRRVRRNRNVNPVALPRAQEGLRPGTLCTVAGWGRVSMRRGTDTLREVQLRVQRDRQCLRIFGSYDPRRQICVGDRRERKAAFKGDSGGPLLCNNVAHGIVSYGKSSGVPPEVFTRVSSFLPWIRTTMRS
Nature of the data set: SP Sepharose chromatography; no appreciable affinity; SELEX and Kd: 30 mM Tris-HCl pH 7.5, 150 mM NaCl, 5 mM KCl, 5 mM MgCl2, on ice/4 C; SPR: immobilized CatG, HBS-EP pH 7.4 running buffer, oligos in the Tris buffer, 25 C. The note with it: protein: native, label: 5' 32P.

Data set [2] has as its target T1, Cathepsin G (CatG). Nature of the data set: SP Sepharose chromatography (Kd in figure only); 5 mM Mg2+; SELEX and Kd: 30 mM Tris-HCl pH 7.5, 150 mM NaCl, 5 mM KCl, 5 mM MgCl2, on ice/4 C; SPR: immobilized CatG, HBS-EP pH 7.4 running buffer, oligos in the Tris buffer, 25 C. The note with it: protein: native, label: 5' 32P.

B1: pE35 (PE35), L-Tyr aptamer (ssDNA)
DNA: AATTCGCTAGCTGGAGCTTGGATTGATGTGGTGTGTGAGTGCGGTGCCCGGATCC
Consider B1, for which the binding result with Cathepsin G (CatG) [1] is reported as “no binding”.

B2: cCG51 (ssDNA)
DNA: ACACGAATACCCTCTGTGCTCAGCGTAACACCCAAGCGTATACCCACATATCACACGTTG
On to B2, for which the binding result in the data set with Cathepsin G (CatG) [2] is “binds”. For the molecule GGTTGGTGTGGTTGG (structured_DNA) [THR, thrombin aptamer], the binding result in the data set with Cathepsin G (CatG) [1] (G-quartet, intramolecular) is listed as “no binding”.

B3: CG51 (ssDNA)
DNA: CAACGTGTGATATGTGGGTATACGCTTGGGTGTTACGCTGAGCACAGAGGGTATTCGTGT
Consider B3, for which, in the data set with Cathepsin G (CatG) [2] (predicted fold about -2.52 kcal/mol), the binding result is “binds”.

Source of the values: paper PMC2658781, “Effective DNA Inhibitors of Cathepsin G by In Vitro Selection”.
